In the nanobody polyreactivity screen of Harvey et al. (2022):

Assay: yeast display, Sf9 membrane polyspecificity reagent, FACS + sequencing; frameworks hold sequencing errors
How it was run: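 Nanobodies from a synthetic yeast display library (Saccharomyces cerevisiae BJ5465), induced 36–48 hours with galactose, were stained 1 hour at 4 °C with 10% biotinylated, detergent-solubilized Sf9 membrane reagent, enriched on streptavidin microbeads, then FACS-sorted. Anti-HA (expression) and streptavidin (reagent binding) fluorescence set low and high (top ~1%) gates. Polyreactivity labels come from the gate of origin. Genes were colony-PCR amplified, MiSeq 2 × 250 sequenced and filtered by CDR length.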

| Sequence | polyreactivity (PSR sort gate) |
| --- | --- |
| QVQLVESGGGLLQAGGSLRLSCAASGSTFRAYTMGGYRPAPGKVREFVASITRSGGSTNYADSVKGRFTISRDNAKNTVYLQMNSLKPEDTAGYYCAAGYWRIHYQHFRSRDYWGQGTQVTVSS | high polyreactivity |
| QVQLVESGGGLLQAGGSLRLSCAASGSTFVTNDMGWYRPAPGKERELVAAISSGSSTNYADSVKGRFTISRDNAKNSVYVHMNSLKPEDTAVYYCAADSLKRYDYWGQGTQVTVSS | low polyreactivity |
| QVQLVESGGGLLQAGGSLRLSCAATGFIFWYYAMGWYRQAPGKEREFVADISSGGSTNYADSVKGRFTISRDNAKNTVYLQMNSLKPEDTAVYDCSKDNYPYHSTVLAVIYDYWGHGTQVTVSS | low polyreactivity |
| QVQLVESGGGLLQAGGSLRLSCADSGSILYTNAMGWYRQAPGKERELVAASTTSGASTIYADSVKGRFTISRENAKNTVYLQLNSLKPEDTAVYYCAAPSRYRYYLGNYWGQGTQVTVSS | high polyreactivity |
| QVQLVESGGGLLQAGGSLRLSCADSGSTFGANSLRWYIQAPGKEREFVAAISGSGTTTYYADSVKGRFTISRDNAKNTFYLQMHRLKPEDTAVYYCDKTRIAHWLEYWGQGTQVTVSS | low polyreactivity |
| QVQLVESGGGLLQAGGSLRLSCSASGFIFHYYARGLYRQAPGKDRELVAAIRSGGSTYYADSVKGRFTISRDNAKNTVYLQMNSLKPEHTEVYFCNGRFYSRGYRYYYWGQGTQVTVSS | high polyreactivity |
| QVQLVESGGGLLQAGGSLRLTCAASGSIFRYYSMGWYRQAPGKERELVASINSCGSTYYADSVKGRFTISRDNAKNTVYLQMKSLKPEDSAVYYCAAETSFYYRGYWKSYDYWGQGTQVTVSA | high polyreactivity |
| QVQLVESGGGLLQAGGSLSLSCAASGGIFYYNAMGRYRQAPRKERELVAANTFSGGSTNYADSVKGRFTISRDNAKNTVYLQMNSLKPEDTAVYYGNARRGYGGGYDYWGQGTQVTVSS | high polyreactivity |
| QVQLVESGGGLLQAGGSLSLSSAASGITCDLYDMGWYRQAPGKERELVAAITDAHSTYYADSVKGRFTNSRDYAKNTVYLQMNSLKPEDTAVYYCAADWYLYLDDKYDYWGQGTQVTVSS | low polyreactivity |
| QVQLVESGGGLLRAGGSLRLICADSAFVNYVMGWYRQAPGKERELVAAISKGGGRTYYADSVKGRFTISRDNAKNTVYLQMNSLKPEVTAVYYCNADGGLPKYDYWGQGTQVTVSS | high polyreactivity |
| QVQLVESGGGLVEAGGSLRLICAASGFIFLSNGMGWYRQGPGKERELVAAISSSGGSTYYADSVKGRFTISRDNAKNTVYLQMNSLKPEDTAVYYCAAEQYSVYETGSYDYWGQGTQVTVSS | low polyreactivity |
| QVQLVESGGGLVEAGGSLRLSCAASGGIFKIYSMGWYIQAPGKERELVAGINWSDTGTYYADSVKGRFTISRDNAKNTVYLQMNSLKPEDTAVYYCAVSGYPVYITYVSYDYDYWGQGTQVNVSS | low polyreactivity |
| QVQLVESGGGLVEAGGSLRLSCAASGGTFKLYAMGWYRPAPGKERELVAAISRRGGSTYYADSVKGRFTISRDNAKNTVYLQMNSLKPDDTALSNCAAPGPTQSTQRGGYWGQGTQVTVSS | high polyreactivity |
| QVQLVESGGGLVEAGGSLRLSCAASGGTFLRYAMGWSIQAPGKERELVAAITYRNGRTYYADSVKGRFTISRDNAKNTVYLQMNSLKPEDTAVYYCAADSTPRGNPAYDYYYWGQGTQVTVSS | high polyreactivity |
| QVQLVESGGGLVEAGGSLRLSCAASGRIFGRNAMGWYRQAPGKERELVAGISSGGTTDYADSVKGRFTISRDNAKNTVYLQMNSLKPEDTAVYYCNVGYAYDDQTYYLGESDYWGQGTQVTVSS | low polyreactivity |
| QVQLVESGGGLVEAGGSLRLSCAASGRIFRYNAMGWYRQAPGKEWELVAAITASGGRTYYADSVKGRFTISRDNAKNTVYLQMNSLKPDDTAVYYCAATAFDKLKVWYSYWRQGTQVTVSS | high polyreactivity |
| QVQLVESGGGLVEAGGSLRLSCAASGRIFTYYAMGWYRQAPGKERELVASISRSGGNTYYADSVKGRFTISRDNAKNTVYLQMNSLKPEDTAVYYCDAVYSRLDYWGQGTQVTVSS | high polyreactivity |
| QVQLVESGGGLVEAGGSLRLSCAASGRTFDYNAMGWYRQAPGKERELVAAISRGGSTYYADSVKGRFTISRDNPNNSVYLQMNSLKPEDTAVYYCAALYVRVGYDYWGQGTQVTVSS | high polyreactivity |
| QVQLVESGGGLVEAGGSLRLSCAASGRTFRYYAMGWYRQAPGKVREFVAAISTSGGRTYYADSVKGRFTISRDNAKNTVYLQMNSLKPEDTAVYYCAAVSAPRFGMDYLGQGTQVTVSS | high polyreactivity |
| QVQLVESGGGLVEAGGSLRLSCAASGSIFARYAMGWTRQAPGKERELVAAITSRGGSTYADSVKGRFTISRDNAKNTVFLQMISLIPEDTAVYYCAAATLWYYRYWTSYDYWGQGTQVTVSS | high polyreactivity |
| QVQLVESGGGLVEAGGSLRLSCAASGSTFGVNAMGWSRQAPGKERELVAVITRSGGSTYYADSVKGRFTISRDNAKNTVYLQMNSLKPEDTAVYYCAKSGVVDWGQGTQVTVSS | low polyreactivity |
| QVQLVESGGGLVHAGASLRLSCAASGLTFRKYAKGWYRQAPGKERELVAAITGSGGRTYYADSVKGRFTISRDNAKNTVYLQMNSLQPEDTAVYYCAADDYFHDDYWGQGTQVTVSS | high polyreactivity |

| Sequence | polyreactivity (PSR sort gate) |
| --- | --- |
| QVQLVESGGGLVHAGCSLPLTCAASGSTLDANAMGSYRQAPGKEMELVAAISSGGITYYADSVKGRFTFSRDNAKSTVYLQMNCLKPEDTAGYYCANRGQGFQFGRDYWGQGTQVTVSS | low polyreactivity |
| QVQLVESGGGLVHAGGRLRLSCAASGRTLAPYAMGWYRQAPGKERELVADIDRGGGSTYYADSVTGRFTISRDNAKNTVYLQMNSVKPEDTAVYYCYVDETGVLVAYTFDYWGQGTQVTVSS | low polyreactivity |
| QVQLVESGGGLVHAGGRLRLSCDASGSLFFWNTMGWYRQAPGKQRQLVAAITVSGGRTYYADSVKGRFTISRDNAKNSFYLQMYSLKPEDTAVYYCAADPYRLYGYASYTYWGQGTQVTVSS | high polyreactivity |
| QVQLVESGGGLVHAGGSHRLSCAASGLIFRRNPMGWYRQAPGKERELVAAISRTGGSTYYADSVKGSFTISRDNAKNTFYLQMNSMKPEYTAVYYCASDNRDYDYTYEYWGQGTQVTVSS | low polyreactivity |
| QVQLVESGGGLVHAGGSLGLICAASGFIFYRYAMGWYRQAPGKERELVAAISWSGGTTYYADSVKGRFSISRDNAKNTVYLQMNSLKPEDTAVYYCAATRLRTEYYWGHGTQVTVSS | high polyreactivity |
| QVQLVESGGGLVHAGGSLLLSCSASRSIFDLYAMGGYRQAPGKERELVADISIADSTNYADSVKGRFTISRDNAKNTVYLKMNSLKPEDTAVYYCKDDVWWYCYEYDYWGQGTEVTVSS | low polyreactivity |
| QVQLVESGGGLVHAGGSLPLSCAASGRIFPGYAMRWYRQAPGKEREFVAAIRGTGTSTYYADSVKGRFTISRDNAKNTVYLQMNSLKPEDTAVYYCAASAGYAYNYWGQGTQVTVSS | low polyreactivity |
| QVQLVESGGGLVHAGGSLRLSCAASGFIFWRYAMGWYRQAPGKERELVATITSSGGTTHYADSVKGRFTISRDNAKNTVYLQMNSLKPEDTAVFYCATRNGVGSLFYSRNYWGQGTQVSVSS | high polyreactivity |
| QVQLVESGGGLVHAGGSLRLSCAASGFTFFKYAKGWYRQAPGKERELVATISIDGITNYADSVKGRFTISRHNAKNTVYLQMNSLKPEDTAVYYCHARSLYQQLGYWGQGTQVTVSS | low polyreactivity |
| QVQLVESGGGLVHAGGSLRLSCAASGFTFSYNARGWYRQAPGKERELVASITRSGGRTYYADSVKGRFTISRDNAKNTVYLQMNSLKPEDTGVYYCAAVWYPWLSSIFDYWGQGTQVTVSS | high polyreactivity |
| QVQLVESGGGLVHAGGSLRLSCAASGFTFYKNAMGWYRQAPGKERELVAAISADGGRTYYADSVKGRFTISRDNAKNTVYLQMNSLKPEDTGVYYCNARARRYTRLRWYAYVSDNDYWGQGTQVTVSS | high polyreactivity |
| QVQLVESGGGLVHAGGSLRLSCAASGFTSYENAMGWYRQAPGKEREFVAAISYIAGNTYYSDSVKGRFTISRDNAKNTVYLQMNSLKPEDTAVYYCAKTKYILPGNAYVNYDTTAYDYWGQGTQVTVSS | low polyreactivity |
| QVQLVESGGGLVHAGGSLRLSCAASGIILDYNAMGWYRQAPGKERELVAAITWSGSSTFYADTVKGRYTISHDNSKNTVYLQMNSLKPEDTAVYYCNADYFWGTYANFDYWGQCTQVTVSS | low polyreactivity |
| QVQLVESGGGLVHAGGSLRLSCAASGITFSRNTMGWYRQAPGKERELVAAITLRGGGRTYYADSVKGRFTISRDNAKNTVYLQMISLKPEDTAVYYCAARYLVTFGHQQRYFYWGQGTHVTVSS | high polyreactivity |
| QVQLVESGGGLVHAGGSLRLSCAASGITFYLYTMGWYRQAPGKERELVATITSGASTSYADSVKGRFTISRDNAKNTFYLQMNSLNPEDTAVYYCAARRTRVTGRYSVYAFDYWGQGTQVTVSS | low polyreactivity |
| QVQLVESGGGLVHAGGSLRLSCAASGLIFPRYAMGSYRQAPGKERELVAAISRSGGNTYYADSVKGRFTISRDNAKNTVYLQMNSLKPEDTAVYYCAAYFSTAPKSQYKLDYWGQGTQVTVSS | high polyreactivity |
| QVQLVESGGGLVHAGGSLRLSCAASGLIFYDNMGWYRQAPGKERELVAAISSSGGSTSYADSVKGRFTISRDNAKNTVYLQMNSLKPEDTAVYYCAAVSGPFVQTSGNGEYDYWGQGTQVTVSS | low polyreactivity |
| QVQLVESGGGLVHAGGSLRLSCAASGLTFVNYAMGWYRQAPGKERELVATISKTGGSTYYADSVKGRFTISRDNAKNTVFLQMNSLKPEDTAVYYCAVDAYYYKWYDYWGQGTQVSVSS | high polyreactivity |
| QVQLVESGGGLVHAGGSLRLSCAASGNIFRYNAMGWYRQAPGKERELVAAISSVGTTNYADSVKGRFTISRDNAKNTVYLQMNSLKPEDSAVYYCAAVAFQGGYWYDYWGQGTQVTVSS | low polyreactivity |
| QVQLVESGGGLVHAGGSLRLSCAASGNIITYNAMALYRQAPGKERELVAAITRGGNTNYADSVKGRFTISRDNAKNTVYLQMNSLKPEDTAVYFCAADRYVQLLGYFFEFDYWGQGSQVTVSS | low polyreactivity |
| QVQLVESGGGLVHAGGSLRLSCAASGRICGPYVMGWYRQAPGKERELVASITSSGGSPYYADSVKGRFTISRDNAKNTVYLQMNSLKPEDTAVYYWGQGTQVSVSS | low polyreactivity |
